According to article PMC3496063 (Structure (London, England : 1993), 2012):

Target: the molecule itself
Assay: SEC-MALS

B1: His6-Plk4 PB1-PB2 (domain or fragment, D. melanogaster, UniProt O97143 382-602, looked up)
chain: DRISVPPLNTKRLLPTRYKTKNAIMSILRNGEVVLEFLKFRPTYNEDRINDICRISDDGQRIIIYQPDPGRGLPVREQPPDLQIPSGDCVYNYDNLPSKHWKKYIYGARFVGLVKSKTPKVTYFSTLGKCQLMETMTDFEIRFYSGAKLLKTPSEGLKVYDRNGMLLSDYSCSESRSLIEHGNECFTHCVNISNALEVAQTKDNSCFPVTIGRRPITDVQP
stoichiometry N: 2
